Source: paper PMC9670692

Substrate: NC(=O)C[C@H](N)C(=O)O
Assay: purified protein
Details: PBS pH 7.2, 37 °C, 1-200 mM asparagine

B1: PtAsp2like1 (Picrophilus oshimae DSM 9789) (protein)
chain: MNVIMLHGGAGSTGVEQKLMEYAVKSKSGSALDSVCNAVVLMENDPCFNAGTGSCMRLDGSIQMDAAVMTSKGFGSVMAIENVKNPVLVARAVMERSPHLIMAGDGAEKFAHLLGFEKYDPSTERAAKRRENDISMILSRKIDSYNKMMETVDISKFVDTVGAVARVNGEFAAAVSTGGAPPMLRGRVGDSPVPGAGIFCGENGAVVATGVGEEIIKNMLCISIYNEIGRESLSKIVMKNISRFRYHAGVIAVSNEEYFAYSNTDMSYAALEF
Km: 11.69 mM
kcat: 0.056 s⁻¹
